This note sets out measurements from patent US9168297B2, “Regulation of skin pigmentation by neuregulin-1 (NRG-1)” (The United States of America, as Represented by the …, priority 2010, dated 2015).

The test system of one assay is ERBB2 mRNA. Kind of assay: ERBB2 mRNA level by RT-PCR in melanocytes. It counts as cell-based, human. The following applies: HEM-LP and HEM-DP, NRG-1 50 ng/ml, 1 day, vs controls. On the procedure: FIGS. 8A and 8B are digital images illustrating the mechanism of ERBB2 abrogation after NRG-1 treatment. FIG. 8A) ERBB2 mRNA levels in HEM-LP and in HEM-DP melanocytes were detected by RT-PCR after treatment with or without NRG-1 (50 ng/ml) for 1 day. FIG. 8B) MG132 (120 nM) was added to the melanocyte culture medium to inhibit proteasomal degradation during treatment of HEM-LP and HEM-DP melanocytes with or without NRG-1 (50 ng/ml). Proteins were extracted for each sample, and ERBB2 levels were detected by western blotting. Results are representative of three studies.
Total RNAs were isolated from cells using an RNeasy mini kit (Qiagen, Valencia, Calif.), and 500 ng RNA of each sample was used for reverse transcription. […]
Whether the decrease in ERBB2 level elicited by NRG-1 was due to transcriptional regulation or to proteasomal degradation was further explored. When ERBB2 mRNA levels were measured after 1 day of treatment with NRG-1, NRG-1 treated cells and controls were similar both for HEM-LP and for HEM-DP melanocytes (FIG. 8A) despite the marked decrease in ERBB2 protein expression noted above.

The next assay deals with HEM-DP melanocytes. Kind of assay: Melanin content assay (melanin/protein). It counts as cell-based, human. The following applies: NRG-1 50 ng/ml. The protocol: FIGS. 6A and 6B are bar graphs illustrating the effect of NRG-1 on the pigmentation of cultured human melanocytes. FIG. 6A) Lightly-pigmented (HEM-LP) and FIG. 6B) Darkly-pigmented (HEM-DP) melanocytes were treated with or without NRG-1 (50 ng/ml) for 1, 3, 5 or 9 days and proteins were extracted from each sample. After centrifugation at 10,000 g for 15 minutes, precipitates were analyzed for melanin content, and the supernatants were analyzed for protein content. Results are the average of three studies±SD; statistically significant differences are indicated.
FIGS. 9A and 9B are digital images illustrating the effect of pan-ERBB inhibitors on NRG-1 action on human melanocytes and MelanoDerms. FIG. 9A) HEM-DP melanocytes were treated for 9 days with 50 ng/ml NRG-1 in the presence of C39 (0.5 μM) or CI-1033 (2 μM) or vehicle (DMSO) alone. The results are the averages of 3 independent studies±SD. FIG. 9B) Dark MelanoDerms were treated for 9 days with 50 ng/ml NRG-1 in the presence of C39 (0.5 μM) or CI-1033 (2 μM) or vehicle (DMSO) alone. L values shown are the average of 3 spots measured in the center of each Melanoderm.
Melanin contents were determined by dissolving cell pellets overnight at room temperature in 200 μl 1 N NaOH, and melanin concentrations were quantitated by absorbance at 405 nm in a SpectraMax 250 ELISA reader (Molecular Devices) using a standard curve generated from synthetic melanin (Sigma-Aldrich, St. Louis, Mo.). Melanin content is expressed as μg melanin per μg protein. Each study was repeated at least three times.
The effects of NRG-1 on the pigmentation of human melanocytes were also examined. […] However, on day 9, when the cells had reached confluence, the pigmentation level of NRG-1-treated HEM-LP melanocytes was about 35% higher than the control (FIG. 6A).
The EGF domain of NRG-1 can activate the NRG-1 receptors. Two exemplary EGF domains of NRG-1 were aligned (SEQ ID NOs: 9 and 10) and 5 different […] peptides within these two sequences were designed (FIG. 12). Darkly-pigmented human epidermal melanocytes (HEM-DP) were treated with each of the […] peptides (100 nM) or the commercially available rhNRG-1 (6.25 nM) or the vehicle only (0.1% BSA in PBS) every other day for 7 days.
In particular, HEM-DP were treated with each of the 8-mer peptides (WC-6, […], amino acids 3-10 of SEQ ID NO: 10; WC-7, […], amino acids 8-15 of SEQ ID NO: 10; WC-8, […], amino acids 12-19 of SEQ ID NO: 10; WC-9, […], amino acids 16-23 of SEQ ID NO: 10; WC-10, […], amino acids 20-27 of SEQ ID NO: 10; 100 nM) or the full length EGF domain of NRG-1 (WC-11, SEQ ID NO: 10, 100 nM) or the commercially available rhNRG-1 (SEQ ID NO: 11, 6.25 nM) or vehicle only (0.1% BSA in PBS) every day for 9 days.

B1: NRG-1: commercially available recombinant human neuregulin-1 (rhNRG-1-β1, R&D Systems), SEQ ID NO: 11 (protein)
chain: TSHLVKCAEKEKTFCVNGGECFMVKDLSNPSRYLCKCPNEFTGDRCQNYVMASFYKHLGIEFMEAEELYQK
Consider B1, for which the “ERBB2 mRNA levels” value with ERBB2 mRNA is listed as “similar”. The “Melanin content, NRG-1 alone” value with HEM-DP melanocytes (9 days, vehicle DMSO) is “stimulated melanin content”. The Pigmentation level entry in the assay on HEM-DP melanocytes (day 9, vs controls) is listed as “remained higher”; in the assay with HEM-DP melanocytes (starting at day 5, subconfluent, vs controls), “higher than the controls”.
